Measurements published in the nanobody polyreactivity screen of Harvey et al. (2022).

Assay: yeast display, Sf9 membrane polyspecificity reagent, FACS + sequencing; frameworks hold sequencing errors
Method in brief: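 Galactose-induced (36–48 hours) yeast carrying a synthetic nanobody display library were exposed to 10% biotinylated, detergent-solubilized Sf9 membrane reagent at 4 °C for 1 hour. FACS followed streptavidin microbead enrichment, using low and high (top ~1%) gates for expression (anti-HA) and reagent binding (streptavidin). Colony PCR, MiSeq 2 × 250 sequencing and CDR-length filtering followed. Labels for polyreactivity reflect the gate of origin.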

Row | Sequence | polyreactivity (PSR sort gate)
1 | QVQLVESGGRLVQAGGSLRLICAASGFTFWYYAIGWYRQAPGKESEFVASISWNGGRTYYADSVKGRFTISRDNAKNTVYLQMNSLKPEDTAVYYCATRVIYSFTDFKGDYWGQGTQVTVSS | high polyreactivity
2 | QVQLVESGGRLVQAGGSLRLSCAASGFIFFTYAMGWYRQAPGKERELVAVITRGGSTYYADSVKGRFTISRDNAKNTVYLQMNSLKPEDTAVYYCAARRYRYFDGTVPLDYWGQGTQVSVSS | high polyreactivity
3 | QVQLVESGGRLVQAGGSLRLSCAASGFIFRKYAMGWYRQAHGKVRELVAGIDWSGCRTYYADSVKGRFTISRDNAKNTVYLQMNSLKPEDTAVYYCNSVFRARPDYDYWGVGTQVTVSS | high polyreactivity
4 | QVQLVESGGRLVQAGGSLRLSCAASGFTFARYTMGWYRQAPGKERELVAAISSRGSSTYYADSVKWRFTISRDNAKNTVYLQMNSLKPEDTAVYYCGAPPRYGYDYWGQGTQVTVSS | high polyreactivity
5 | QVQLVESGGRLVQAGGSLRLSCAASGFTFNYNAMGWYRQAPGKERELVAAISRSGGSTYYADSVMGRFTISRDNAKNTFYLQMNSLKPEDTAVYYFAAVRDIGKYGYWGQGTQVTVSS | high polyreactivity
6 | QVQLVESGGRLVQAGGSLRLSCAASGFTYSPYAMGWYRQAPWKESELVAAITSSGGSTYYADSVKGRFTISRDNANNSVYLQMKSLKPEDTAVYYSAADYGYKYYWRYGYWGQGTQVTVSS | high polyreactivity
7 | QVQLVESGGRLVQAGGSLRLSCAASGITFYYYAMGWYRQAPGKERELVAAISVSGGSTYYADSVKGRFTISRDNAKNTVYLQMNSLKPEDTAVYYCAAADLLSYTYPEYDYWGQGTQVTVSS | low polyreactivity
8 | QVQLVESGGRLVQAGGSLRLSCAASGLIFAPYAMGWYRQAPGKEWELVAAISSSGTSTYYADSVKGRFTISRDNAKNTVYLQMNSLKPEDTAVYYCAAVYWTFWGTIATRYDYWGQGTQVTVSS | high polyreactivity
9 | QVQLVESGGRLVQAGGSLRLSCAASGLIIDYYTMGWYRQAPGKERELVAAINKSGGSTYADSVKGRFTISRDNAKNTVYLQMNCLKPEDSAVYYCAAEVDYSYWPEYSRKYYYWGEGTQVTVSS | low polyreactivity
10 | QVQLVESGGRLVQAGGSLRLSCAASGLTLFRYDQGWYRQAPGKERELVAAIDYGGGTYYADSVKGRFTISRDNAKNTVYLQMNSLKPEDTAVYYCAVEPEYKYYEGDYWGQGTQVTVSS | low polyreactivity
11 | QVQLVESGGRLVQAGGSLRLSCAASGRIFGAYAMGWYRQAPGKERELVAAINSGGSTFYADSVKGRFTISRDNAKNTVYLQMNRLKPEDTAVYYCAKRSYDYRRYSWGQGTQVTVSS | high polyreactivity
12 | QVQLVESGGRLVQAGGSLRLSCAASGRIFNYYDMGWYSQAPGKERELVAAINYSGGSTYYADSVKGRFTISRDNAKNTVSLQMNSLKAEDTAVYYCAADGYYYYCYGTTDQDDYWGLGTQVTVSS | low polyreactivity
13 | QVQLVESGGRLVQAGGSLRLSCAASGRIFRYYTMGWYRQAPGKERELVAAITRRGGITNYADSVKGRFTISRDNAKNTVYLQTNSLKPEDTAVYYCAAKYVSQGYDYWGQGTQVTVSS | high polyreactivity
14 | QVQLVESGGRLVQAGGSLRLSCAASGRIFTGSNVMGWYRQAPGKEREFVAVINSGGGSTYYADSVKGRFTISRDNAKNTVYLQMNSLKPEDTAVYYCAADVGGWGYYDWVQGTQVTVSS | low polyreactivity
15 | QVQLVESGGRLVQAGGSLRLSCAASGRIFVYNAMRWYRQAPGKERELVASITSSGGSTYYADSVKGRFTISRDNAKNTVYLQMNSLKPEDTAVYYCAADVQPDTRSTPEMDYWGQGTQVTVSS | low polyreactivity
16 | QVQLVESGGRLVQAGGSLRLSCAASGRIFYPYAMGWYRQAPGKERELVASISSSGDRTYYADSVKGRFTISRDNAKNTVYLQMNSLKPEDTAVYYCAARWRYTYYYWGQGTQVTVSS | high polyreactivity
17 | QVQLVESGGRLVQAGGSLRLSCAASGRILRQYTMGWYRQAPGKERELVAGITGSDSSTYYADSVKGRFTISRDNAKNTVYFQMNSLKPEDRAVYYCGTYRWGTLASIYYYWGQGPQVTVSS | low polyreactivity
18 | QVQLVESGGRLVQAGGSLRLSCAASGRTFNRNAMVWYRQAPGKERELVAAISRGGGGTYYADSVMGRFTISRDNAKNTVYLQMNSLKPEDTAVYYCNAAPYYVMYLLWSSNTYDYWGQGTQVTVSS | high polyreactivity
19 | QVQLVESGGRLVQAGGSLRLSCAASGRTFRWYAMGWYRQAPGKEREVVAAITFSGGSTYYADSVKGRFTISRDIAKNTVYLQMNSLKPEDTAVYYCNAVYYRRKEYDYWGQGTQVTVSS | high polyreactivity
20 | QVQLVESGGRLVQAGGSLRLSCAASGRTFSTYDMGWSRQAPGKERELVAAITSTGDTPYYADSVKGRFTISRDTAKNTVYLQLNSLKPEDTAVYYCAAYASWHQWIYAFYGLDYWGQGTQVTVSS | low polyreactivity
21 | QVQLVESGGRLVQAGGSLRLSCAASGRTFYGYAMGWYRQAPGKEREFVAAISVGGGSTYYADSVKGRFTISRDKAKNTVYLQMNSLKPEDTAVYYCAAYTRYWSYGYWGQGTQVTVSS | high polyreactivity
22 | QVQLVESGGRLVQAGGSLRLSCAASGRTIYSNTMGWYRQAPGKEREFVAAIPSIVGSTYYADSVKGRFTISRDNAKNTVYLQMNSLKPEDTAVYYCAVTDYYSYLLRYDSWGQGTQVTVSS | low polyreactivity

Row | Sequence | polyreactivity (PSR sort gate)
23 | QVQLVESGGRLVQAGGSLRLSCAASGSIFIPNAMGWYRQAPGKERELVAAITVSGGITYYADSVKGRFTISRDNAKNSVYLQMNSLKPEDTAVYYCAADFTIYYILEYDYWGQGTQVTVSS | low polyreactivity
24 | QVQLVESGGRLVQAGGSLRLSCAASGSIFRSYAMGWYRQAPGKERELVATISSSTGSTYYADSVKGRFTISRDNAKNTVYLQRNSLKPEDTAVYYCNAQRRWSIYGYFYYWGQGTQVTVSS | high polyreactivity
25 | QVQLVESGGRLVQAGGSLRLSCAASGSIFSGYTMGWYRQAPGKERELVAAISSDGSTTYADSVKGRFTISRDNAKNTVYLQLNSLKPEDSAVYYSAAYPYWDGSYGGYDYWGQGTQVTVSS | low polyreactivity
26 | QVQLVESGGRLVQAGGSLRLSCAASGSTFGPYTMGWYRQAPGKERELVATISSGGSTYYADSVKGRFTISRDNAKNTVYLQMNSLKPEDTAVYYCAARYWSIYDYWGQGTQVTVSS | low polyreactivity
27 | QVQLVESGGRLVQAGGSLRLSCAASGSTFGWYTMGWYRQAPGKERELVAAITSRGTRTSYADSVKARFTISRDNAKNTVYLQMNSLKPEDTAVYYCAARVFRGLGEYYWGQGTQVTVSS | high polyreactivity
28 | QVQLVESGGRLVQAGGSLRLSCAASGSTFPLYARGWCRQAPGKERELVAAITGGGGRTYYADSVKGRFTISRDNAKNTVYLQMNSLKPEDTGVYYCNAVVYLTNYWYDYWGQGTQVTVSS | low polyreactivity
29 | QVQLVESGGRLVQAGGSLRLSCAASGSTFVYYAMGWYRQAPGKERELVASINSGGSTYYADSVKGRFTISRDNAKNTVYLQMNSLKQEDTAVYDCAATSIPPSVHLQDPTYDYWGQGTQVTVSS | low polyreactivity
30 | QVQLVESGGRLVQAGGSLRLSCAASGSTIKSYAMGWYRQAPGKERELVAGITSGDSTNYADSVKGRFTISRDNAKNTVYFQMNSLKPDDTAVYYCNAVTQARYYYWGQGYQVTVSS | low polyreactivity
31 | QVQLVESGGRLVQAGGSLRLSCADSGRTFYLYAMGWYRQAPGKEREFVADITFSGASTDYAASVKGRFTISRDNAKNTVYLQMNSLKPEDTAVYYCNADIAHVCWWSYPTDDYWGQGTQVTVSS | high polyreactivity
32 | QVQLVESGGRLVQAGGSLRLSCAPSGIIFIWNTMGWYRQAPGKESEFVAAISRSGSGTSYADSVKGRFTISRDNAKNTVYLQMNSLKPEDTAVYYCAARLECPYDMYYWGQGTQVTVSS | low polyreactivity
33 | QVQLVESGGRLVQAGGSLRLSCAPSGRIFWAYAMGWYRPAPGKERELVAAITSGGSTYYADSVKGRFTISRDNAKNTVYLQMNSLKPEDTAVYYCAVGSKWVDDSPEDVYWGQGTQVTVSS | low polyreactivity
34 | QVQLVESGGRLVQAGGSLRLSGAASGSTIQTNVMGWYRQAPGKERELLAAISSGGSTNYADSVKGRFTISRDNAKNNVYLQMNSLKPEDTADYYCAKRWPYFRRGKDGYCGQGTQVTVSS | low polyreactivity
35 | QVQLVESGGRLVQAGGSLRLSSAASGSTFSFYVMRWYRQAPGKERELVAAISWSSVGTYSADSVKGRFTISRDNAKNTVYLQMNSLKPEDTAVYYCAADSYRRVAKHGYWGQGTQVTVSS | high polyreactivity
36 | QVQLVESGGRLVQAGGSLSLSCASSGRIFWTYAMGLTRQAPGEERELVAAINSSDGTYYADSVKGRFTISRDNAKNTVYLQKNSLKPEDTAVYYCNADRDALVGYDYDYWGQGTQVTVSS | low polyreactivity
37 | QVQLVESGGRLVQAGGTLPLSSAASGLIFGYYAMGFYIQAPGKERELDADISSGGSTNYADSVKGRFTISRENAKNTVYLQMNRLTPEDTAVFYCAARYSRWFGYCGQGTQVTVSS | high polyreactivity
38 | QVQLVESGGRLVQAGGTLRLSCAASGSICGFNAMGWYRQAPGKERELVAAINNGGSKNYADSVKGRFTISRDNAKITVYLQMKILKQEDTEVYYCAARLNYIRRGYWGQGTQVTVSS | high polyreactivity
39 | QVQLVESGGRLVQAGVILRLSCAASGSTFAPYAMGWYRQSPGKESELVATISASGGTTYYADSVKGRFTISRDNAKNTVYLQMNSLKPEDTAVYYCNADSNWYDQWNYYGLNDYWGQGTQVTVSS | low polyreactivity
40 | QVQLVESGGRLVQAGVSLRISSAASGYISRVYAMGWYRHAPGKERELVAAITRSTTYYADSVKGRFTISRDNAKNTVYLQMNSLKPEDTAVDYCNADWASPGQVRMYYWGQGTQVTVSS | high polyreactivity
41 | QVQLVESGGRLVQARGSLRLICAASGLIIAYYTMGWYRQAPGKEREFVAVIDWIGVSTYYADSVKGRFTISRDNAKNTVYLQMNSLKPEDTAVYYCNADNAFPSPKSSLDYWGQGTQVTVSS | low polyreactivity
42 | QVQLVESGGRLVQARGSLRLSCAASGRIFYDYAMGCYRQAPGKESELVAAISGSGGSTYYADSVKGRFTISRDNAKNTVYLQMNSLKPEDTAVYYCNRYTTRYYPGGDYWGQGTQVTVSS | high polyreactivity
43 | QVQLVESGGRLVQPGGSLRLSCAASGRTFVLNAIGWYRQAPGKEREFVAAISWGGVRTDYADSVKGRFTISRDNAKNTVYLQMNSLKPEDTAVYYCATSGSRYRRYDYWGQGTQVTVSS | high polyreactivity
